Source: the supplement of paper PMC9170038

Test system: MS2 coat protein
Test: apparent KD of MS2 coat protein; designed switch direction (-1 OFF switch, 1 ON switch): -1; higher = weaker reporter binding
Outline: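 Transcription of designed RNA switches on Illumina chips was done by stalled E. coli RNA polymerase. SNAP-549-labelled MS2 coat protein was then titrated in doubling steps from 0.7 or 1.5 nM to 3 µM, with steps of 0.8–1.5 h at the lowest and 10–20 min at the highest concentration. The per-design median over clusters of curve-fitted normalised fluorescence is reported as apparent KD.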

[1] = input ligand: microRNA oligo, concentration not stated
[2] = Eterna round: R95, input ligand: FMN 200 uM
[3] = Eterna round: R95, input ligand: microRNA oligo, concentration not stated
[4] = Eterna round: R95, input ligand: none

Row | Sequence | apparent KD of MS2 coat protein [1] [µM] | apparent KD of MS2 coat protein (input ligand: FMN 200 uM) [µM] | apparent KD of MS2 coat protein (input ligand: none) [µM] | apparent KD of MS2 coat protein [2] [µM] | apparent KD of MS2 coat protein [3] [µM] | apparent KD of MS2 coat protein [4] [µM]
1 | AUCAGCUCGUCAGGAUAUACAUGAUAGAUCGAUUAAUUAAUUAAUUUAACAUGAGGAUCACCCAUGUAGAAGGGACGAGCUGAU [ENG2/1-B3] (Eterna round: R96, puzzle: Exclusion NG 2) | 0.0393 | – | – | – | – | –
2 | UAUUAGCAAGCGAGAUCCCACAUGAGGAUCACCCAUGUGCUCGUCUUAUAAGGUACUGUGACGAGAGUCACGGUACC [Mat - Sensor, turn-off var - Eli Mod - D17] (Eterna round: R97, puzzle: Sensor, turn-off variant 1) | – | 0.0164 | 0.0139 | – | – | –
3 | CUGAGCAGACGGAGAUCCAACAUGAGGAUCACCCAUGUCUCAAAAGCUUUUUGCUUGUCUUAUCCUCCUCUGUUCUC [Xegean] (puzzle: Sensor v3, turn-off variant 1) | – | – | – | 0.0146 | 0.248 | 0.0127
4 | GAUAUCUCAGGAUAUACAUGCCCUCCGAAACGGAGUCAUGAACAUGAGGAUCACCCAUGUAGAAGGGAGAUAUC [Alacar 2] (Eterna round: R97, puzzle: Exclusion 2) | – | 0.0255 | 0.0158 | – | – | –
5 | CUCUAACACGCAGGAUAUGCAUCACCAUAAUUAGCAGAAGGGCGAAACACAUGAGGAUCACCCAUGUUGAGGAUCACCCAUGAC [Default title] (Eterna round: R96, puzzle: Exclusion NG 1) | 0.0199 | 0.0221 | 0.0236 | – | – | –
6 | CAAAACAGAGGAUAUACAUUUCCUCACCGCCAAAUAGCGGAACAUGAGGAUCACCCAUGUAGAAGGCUGGAAAA [Usenqura] (puzzle: Exclusion 2) | – | – | – | 0.384 | 0.0371 | 0.0434
7 | AUAAUGUAAGGAUAUCAGUCGUACAGCUGCGGCUGUACGACUGAGAAGGUACAUGAGGAUCACCCAUGUGGUCA [E4/9-A3] (Eterna round: R97, puzzle: Exclusion 4) | – | 0.324 | 0.694 | – | – | –
8 | UUCAGUCAUCCUUAUUCUUACAUGAGGAUCACCCAUGUUUGUUUAAUUAAGUUUUGUAAGUUUGUUGUUCGUUUUAU [JR_STOV1_v2_Sub073] (Eterna round: R97, puzzle: Sensor, turn-off variant 1) | – | 0.0479 | 0.0503 | – | – | –
9 | AACCUGAGGCUUUGCUUUAGGUCUACAUGAGGAUCACCCAUGUAGGAUAUGGUAGGCUUUGCUUACCAGAAGGACAUGGUAAUU [JL ENG3 1.13] (Eterna round: R96, puzzle: Exclusion NG 3) | 0.0477 | 0.323 | 0.0655 | – | – | –
10 | UGGUGUGAAGGAUAUACAUGAGGAUCACCCAUGUAUGUGGUGUGUGUUGAGGUGGAGGGUAGAAGGUCAGGUGG [JR_Exclusion3_Sub014] (puzzle: Exclusion 3) | – | – | – | – | 0.0359 | –
11 | ACCGUGAGGGUGAGGAUAUUCUGAGGGACGCCCUGGAAGAAGGUACAUGAGGAUCACCCAUGUGGCCUCAGACU [Eternabot (L2) Solution 99] (Eterna round: R97, puzzle: Brourd's mod of Exclusion 4) | – | 0.0358 | 0.0324 | – | – | –
12 | UAGGGUAAGUCAUGUACGAACAUGAGGAUCACCCAUGUAGCUGAAAUAAACCUCGUCCAAAUCUUUCCGUAAAAUGU [Zavein] (Eterna round: R96, puzzle: Sensor v2, turn-off variant) | 0.211 | 0.271 | 0.295 | – | – | –
13 | AAAUUAAUGGUAAGGAUAUGAUGCAGGAAACUGCGUCAGAAGGUACAUGAGGAUCACCCAUGUUAAACUAAUUU [Explosion 9 - Jieux - Brourd's mod of Exclusion 4] (Eterna round: R97, puzzle: Brourd's mod of Exclusion 4) | – | 0.0182 | 0.0142 | – | – | –
14 | ACAUGUUGCGCAGGAUAUGAGACACAUGAGGAUCACCCAUGUGGCUACAUGUCAUACCAAGCGUCUCAGAAGGGUGUUAACAUG [Ex NG2 #35] (Eterna round: R96, puzzle: Exclusion NG 2) | 0.0205 | 0.0235 | 0.0284 | – | – | –
15 | GUGCCGCGAGGAUAUACAGACGGGUCCAAUACGUGUCUCGGACUUGAGGAUCACCCAAGUAGAAGGCUUUUCAG [LRO-Excl2-11-mod _r4_621 by salish99] (Eterna round: R97, puzzle: Exclusion 2) | – | 0.0277 | 0.0277 | – | – | –
16 | GUAGAGUCAGGAUAUACGAGAUCGAAAGAUCAAAGAUUCCUACAUGAGGAUCACCCAUGUAGAAGGGACUCUAC [Eli x2 4.123] (Eterna round: R97, puzzle: Exclusion 2) | – | 0.016 | 0.0156 | – | – | –
17 | UAGUAUCUGCAGGAUAUCAGUGGAAAACACGUAUGAGAAGGGCAGACAUGAGGAUCACCCAUGUAAAGGGUCCG [BotMod 10 - Jieux - Exclusion 6] (Eterna round: R97, puzzle: Exclusion 6) | – | 0.541 | 0.173 | – | – | –

Row | Sequence | apparent KD of MS2 coat protein [1] [µM] | apparent KD of MS2 coat protein (input ligand: FMN 200 uM) [µM] | apparent KD of MS2 coat protein (input ligand: none) [µM] | apparent KD of MS2 coat protein [2] [µM] | apparent KD of MS2 coat protein [3] [µM] | apparent KD of MS2 coat protein [4] [µM]
18 | GUGAUCUAUCAUGUAAUGAACAUGAGGAUCACCCAUGUAGACAAGUUUUUUGCUCGUCUCAUAAUAAGAUAGAUCAC [Antenna 17 - Jieux - Sensor, turn-off variant 1] (Eterna round: R97, puzzle: Sensor, turn-off variant 1) | – | 0.0175 | 0.0193 | – | – | –
19 | CCGGAAAUGAAGGAUAUAGGAGUCGAUAGACUCCUAGAAGGUCAUACAUGAGGAUCACCCAUGUGUCCUACCGG [Fiskers Ex 6 - 74] (puzzle: Exclusion 6) | – | – | – | – | 0.0129 | –
20 | AUAAUGUCAGGAUAUCAGUCGACUAGCUUCGGCUAGUCGACUGAGAAGGGACAUGAGGAUCACCCAUGUAGAUC [E4/18-A1] (Eterna round: R97, puzzle: Exclusion 4) | – | 0.267 | 1.12 | – | – | –
21 | AUCAUGUUAGGAUAUACAAGAAAAGAAAAGAAAGAAAAGAAGUAGAAGGAACAUGAGGAUCACCCAUGUAAGAA [EteRNA is fun!] (Eterna round: R96, puzzle: Exclusion 4) | 0.023 | – | – | – | – | –
22 | GGUCAGACGGUAGGAUAUCCAUAUUGAGUGACCCUUUCAUAACAUGAGGAUCACCCAUGUCGGUGGGAGAAGGGCCGUACGGCG [salish99_ExNG02_R04_006] (Eterna round: R96, puzzle: Exclusion NG 2) | 0.214 | 0.205 | 0.411 | – | – | –
23 | CCUGUUCGGGUUGGUUUGGGCGGGACAUGAGGAUCACCCAUGUAGGAUAUUUUGGCUGCCGGUCGGGAGAAGGACAUGCUUGGG [-22.4, -21.3 kcal, 17% A] (Eterna round: R96, puzzle: Exclusion NG 3) | 0.0613 | 0.135 | 0.0983 | – | – | –
24 | AAACGACAUGAGGAUCACCCAUGUGGCCCUUAGACUCGUAUCGAGGAUAUCCAGGGCCGGGCCGUGGAGAAGGCGAAUUAAAAU [Cetele] (Eterna round: R96, puzzle: Exclusion NG 3) | 0.0288 | 0.0638 | 0.0436 | – | – | –
25 | UAAAAGGAAGGAUAUACACUUCAAAACCUCAUGUGACUUUCACAUGAGGAUCACCCAUGUAGAAGGUCCAAGGC [Letior] (puzzle: Exclusion 2) | – | – | – | – | 0.0215 | –
26 | AAUUAUUGAUGAGGAUAUUGUGGUGAAACACGACAAGAAGGCAUUAUUCACAUGAGGAUCACCCAUGUGAGCCUGGUGCAUAUA [Ex NG1 #61] (Eterna round: R96, puzzle: Exclusion NG 1) | 0.0116 | – | – | – | – | –
27 | GCCGUUGAAGGAUAUGCUGAACUUGAGGUGCGUCCAUCCACACAUGAGGAUCACCCAUGUAGAAGGUCAACGGA [Eternabot (L2) Solution 67] (Eterna round: R97, puzzle: Exclusion 2) | – | 0.456 | 0.287 | – | – | –
28 | UCAUGGUAGCAGGAUAUGCUUGUAAUUUUUUAUGCAGAAGGGCUUACAUGAGGAUCACCCAUGUGUUAGGUCUA [JR_E6_Sub069] (puzzle: Exclusion 6) | – | – | – | – | 0.0452 | –
29 | GAUACACAUGAGGAUCACCCAUGUGAGGAUAUGCGUACGUUGUCCGUAGGCGACGUGCGCAGAAGGCGCGUGAG [Mat - Mod of JL D88] (puzzle: Exclusion 1) | – | – | – | – | 0.0464 | –
30 | CCAUAUAACUGAGGAUAUCAUCGCAACUGACGUUGAGAAGGCAGACAUGAGGAUCACCCAUGUGAUUUCUCAAUAUUAUACAUC [Prohibition 80 - Jieux - Exclusion NG 1] (Eterna round: R96, puzzle: Exclusion NG 1) | 0.0312 | 0.245 | 0.0611 | – | – | –
31 | UAUUCUGCGCUCGUCUUAUACAUGAGGAUCACCCAUGUUCUCAAGGUCUUAUGUACUGACACGAAAGUGUUAGUAAU [AK-miRNA-r3-3] (Eterna round: R97, puzzle: Sensor, turn-off variant 1) | – | 0.0363 | 0.0416 | – | – | –
32 | UCUCCCUGGCGAGGAUAUCCUGUGCGGUUCCGGCUCGUGUCUGUUACAUGAGGAUCACCCAUGUGGGAGAAGGUGCCUGUGGCU [Design 93] (Eterna round: R96, puzzle: Exclusion NG 2) | 0.068 | 0.141 | 0.124 | – | – | –
33 | GUAAACGCAGAGGAUAUAUCAGAUCAAAGCUGCAUAGAAGGCUGCACAUGAGGAUCACCCAUGUGGUCUUUAAU [Mat - Exclusion 6 - JL Mod - D3] (Eterna round: R97, puzzle: Exclusion 6) | – | 0.203 | 0.021 | – | – | –
34 | GGAACGGCGAACAAGGCCCACAUGAGGAUCACCCAUGUGGCUGGGUGAUCUCGCUCGUCUUAUAUAUGGCUGGACCG [salish99-s2-off-006] (Eterna round: R96, puzzle: Sensor v2, turn-off variant) | 0.0238 | 0.146 | 0.104 | – | – | –
